Publication PMC10816986, “The Role of Key Amino Acids of the Human Fe(II)/2OG-Dependent Dioxygenase ALKBH3 in Structural Dynamics and Repair Activity toward Methylated DNA” (International Journal of Molecular Sciences, 2024)

B1: wt ALKBH3: wild-type human Fe(II)/2OG-dependent dioxygenase ALKBH3 with N-terminal His-tag, expressed in E. coli (protein, UniProt Q96Q83 1-286, looked up)
Alpha-ketoglutarate-dependent …: MEEKRRRARVQGAWAAPVKSQAIAQPATTAKSHLHQKPGQTWKNKEHHLSDREFVFKEPQQVVRRAPEPRVIDREGVYEISLSPTGVSRVCLYPGFVDVKEADWILEQLCQDVPWKQRTGIREDITYQQPRLTAWYGELPYTYSRITMEPNPHWHPVLRTLKNRIEENTGHTFNSLLCNLYRNEKDSVDWHSDDEPSLGRCPIIASLSFGATRTFEMRKKPPPEENGDYTYVERVKIPLDHGTLLIMEGATQADWQHRVPKEYHSREPRVNLTFRTVYPDPRGAPW
modifications: N-terminal His-tag
notes: wild-type human Fe(II)/2OG-dependent dioxygenase ALKBH3 with N-terminal His-tag, expressed in E. coli
B2: Y143F ALKBH3: ALKBH3 mutant, Tyr143 replaced with Phe (protein, UniProt Q96Q83 1-286, looked up, variant Y143F)
Alpha-ketoglutarate-dependent …: MEEKRRRARVQGAWAAPVKSQAIAQPATTAKSHLHQKPGQTWKNKEHHLSDREFVFKEPQQVVRRAPEPRVIDREGVYEISLSPTGVSRVCLYPGFVDVKEADWILEQLCQDVPWKQRTGIREDITYQQPRLTAWYGELPYTFSRITMEPNPHWHPVLRTLKNRIEENTGHTFNSLLCNLYRNEKDSVDWHSDDEPSLGRCPIIASLSFGATRTFEMRKKPPPEENGDYTYVERVKIPLDHGTLLIMEGATQADWQHRVPKEYHSREPRVNLTFRTVYPDPRGAPW

Test system: m3C_FRET substrate (m3C-containing DNA)
Experiment: Stopped-flow FRET pre-steady-state kinetics of m3C DNA demethylation
Assay type: biochemical
Conditions: for k1 × 10^−6 / k2 / k3 / kr (irreversible step of substrate hydroxylation) / k−1 / k−2 / k−3 / Kd: global fitting of SF data to Scheme 1; for Kd: read-out: Kd^Product (equilibrium dissociation constant of the enzyme–product complex); for Ka = K1 + K1 × K2 + K1 × K2 × K3: overall affinity for damaged DNA, Ki = ki/k−i
Excerpt: In previous research, we employed a stopped-flow (SF) method to detect conformational changes in the dioxygenases AlkB and ALKBH2, as well as their substrates, throughout the catalytic cycle. The SF technique provides excellent opportunities for studying the conformational dynamics of protein–nucleic acid complexes under pre-steady-state conditions within the millisecond time range. Conformational transitions are typically detected by measuring the fluorescent signal from the tryptophan residues of the enzyme or fluorescent labels incorporated into the DNA substrate sequence. […] It should be noted that another common approach to detecting conformational dynamics based on measurement of the intrinsic Trp fluorescence of ALKBH3 was unsuccessful due to a low signal-to-noise ratio. The time-dependent FRET signal profiles following rapid (1 ms) mixing of equimolar amounts of enzyme and the m3C_FRET substrate in the presence of Fe(II) and 2OG ligands were obtained under near single-turnover conditions (Figure 3). […] In the case of the wt protein, the initial stage of the enzyme–substrate interaction was accompanied by a slight increase in the FRET signal between 20 ms and 2 s. Subsequently, from 10 s to 250 s, a significant quenching of fluorescence occurs, followed by stabilization at a constant level. The kinetic curve obtained for the Y143F mutant was similar to wt ALKBH3, except that the phase of decrease in the signal was shifted towards longer time scales (20–600 s).
For wt and Y143F ALKBH3, a series of SF traces were recorded across a range of m3C substrate concentrations from 0.5 to 4.0 µM (Figure 4). […] Additionally, a slight increase in signal, absent in the native protein, is discernible in the initial segment (1–5 ms) of the curves for Y143F ALKBH3, most likely indicative of the primary enzyme–substrate binding.
Table 1 summarizes the values of the rate constants describing the forward and reverse reactions of the mechanism, as well as the equilibrium dissociation constant of the enzyme–product complex. […] Subsequent isomerization of the enzyme–substrate complex is characterized by two equilibrium steps, which occur at half the rate in wt ALKBH3, yet with greater efficiency than for the Y143F protein. To assess the overall affinity of ALKBH3’s active site for damaged DNA, the equilibrium constant Ka = K1 + K1 × K2 + K1 × K2 × K3, where Ki = ki/k−i, was determined. […] In contrast, the rate of the step of irreversible hydroxylation of the methyl group by the native protein (kr^wt = 0.023 s^−1) is nearly twice as fast as that of the Y143F mutant (kr^Y143F = 0.013 s^−1). Furthermore, the equilibrium dissociation constant of the enzyme–product complex (Kd^Product) is almost an order of magnitude higher for wt ALKBH3. […] The substitution of Tyr143 with Phe leads to a reduction in the rate and efficiency of demethylation of the m3C substrate, likely due to perturbations in the structure of the catalytically competent complex and strong product binding, which complicates the enzyme’s transition to the next turnover.
Figure 3 Time courses of the FRET signal generated by the FAM/BHQ1 pair under interactions of wt, Y143F, Y143A, L177A, and H191A ALKBH3 with m3C-containing DNA. The fluorescence traces represent changes in the FRET signal after rapid mixing of 1.5 µM m3C_FRET substrate with 1.5 µM protein in the presence of 40 µM Fe(II) and 1 mM 2OG. Each curve was collected in a split mode within four time intervals (up to 0.1, 1, 50, and 500 or 1000 s) in 4–5 replicates.
Figure 4 Pre-steady-state kinetics of m3C-containing DNA demethylation by wt (A) and Y143F (B) ALKBH3 proteins.

Molecule | k1 (formation of the primary enzyme–substrate complex) [M⁻¹ s⁻¹] | k1 × 10^−6 [M^−1 s^−1] | k2 [s⁻¹] | k3 [s⁻¹] | kr (irreversible step of substrate hydroxylation) [s⁻¹] | k−1 [s⁻¹] | k−2 [s⁻¹] | k−3 [s⁻¹] | kr (irreversible step of substrate hydroxylation) (listed as wt) [s⁻¹] | Kd [nM] | Ka = K1 + K1 × K2 + K1 × K2 × K3 | kr (irreversible step of substrate hydroxylation) (listed as Y143F) [s⁻¹]
B1 | 9.4e+07 | 19 ± 3 | 2.9 ± 0.9 | 0.57 ± 0.12 | 0.023 ± 0.003 | 64 ± 5 | 2.8 ± 0.5 | 0.13 ± 0.01 | 0.023 | 720 | (1.9 ± 0.2) × 10^6 M^−1 | 
B2 | 1.9e+07 | 94 ± 3 | 6.1 ± 1.4 | 1.4 ± 0.1 | 0.013 ± 0.001 | 270 ± 26 | 7.7 ± 0.24 | 0.48 ± 0.03 |  | 83 | (1.4 ± 0.1) × 10^6 M^−1 | 0.013
